Results as given in patent US20210238260A1.

What was measured:
[1] = target: plasma purified human antithrombin III (AT-III), in complex with unfractionated heparin (UFH) (human) (UniProt P01008); assay: inhibition of FIXa by AT-III/UFH, residual activity on Mesyl-D-CHG-Gly-Arg-AMC, pseudo-first-order
[2] = target: Antithrombin III (ATIII) (human) (UniProt P01008); assay: inhibition of FIXa by ATIII, residual FIXa activity; heparin not given
[3] = target: antithrombin III (plasma purified human AT-III), in complex with unfractionated heparin (human) (UniProt P01008); assay: AT-III/UFH inhibition of FIXa; residual activity on Pefafluor FIXa substrate, varied incubation time

Substance | kapp (apparent second-order rate constant for inhibition) [1] | kapp (apparent second-order rate constant for inhibition) [3] | other results
FIXa-Y155F/T343R/R403E/E410N (from UniProt P00740 47-191; P00740 227-461) (enzyme) | 880000 M⁻¹ s⁻¹ |  | 
FIXa-K247N/N249S/R318Y/T343R/E410N (from UniProt P00740 47-191; P00740 227-461) (enzyme) | 49000 M⁻¹ s⁻¹ |  | 
FIXa-Y155F/K247N/N249S/R318Y/R338E/T343R (from UniProt P00740 47-191; P00740 227-461) (enzyme) | 370000 M⁻¹ s⁻¹ |  | 
FIXa-Y155F/K247N/N249S/R318Y/T343R/R403E/E410N (from UniProt P00740 47-191; P00740 227-461) (enzyme) | 28000 M⁻¹ s⁻¹ |  | 
FIXa-K247N/N249S/R338E/T343R/R403E (from UniProt P00740 47-191; P00740 227-461) (enzyme) | 50000 M⁻¹ s⁻¹ |  | 
FIXa-K247N/N249S/R338E/T343R/E410N (from UniProt P00740 47-191; P00740 227-461) (enzyme) | 1.4e+07 M⁻¹ s⁻¹ |  | 
FIXa-Y155F/K247N/N249S/T343R/R403E/E410N (from UniProt P00740 47-191; P00740 227-461) (enzyme) | 620000 M⁻¹ s⁻¹ |  | 
FIXa-R318Y/R338E/T343R (from UniProt P00740 47-191; P00740 227-461) (enzyme) | 1.8e+06 M⁻¹ s⁻¹ |  | 
FIXa-K247N/N249S/R318Y/T343R/R403E (from UniProt P00740 47-191; P00740 227-461) (enzyme) | 9800 M⁻¹ s⁻¹ |  | 
FIXa-K228N/R318Y/R338E/T343R/R403E/E410N (from UniProt P00740 47-191; P00740 227-461) (enzyme) | 7100 M⁻¹ s⁻¹ |  | 
FIXa-Y155F/K247N/N249S/R318Y/T343R/E410N (from UniProt P00740 47-191; P00740 227-461) (enzyme) | 360000 M⁻¹ s⁻¹ |  | 
BeneFIX Coagulation Factor IX (Recombinant) (activated, FIXa) (from UniProt P00740 47-191; P00740 227-461) (enzyme) |  |  | ATIII Kapp (second-order rate constant of inhibition) [2]: 1.6e+07 M⁻¹ s⁻¹
FIXa-K247N/N249S/R318Y/R338E/T343R/E410N (from UniProt P00740 47-191; P00740 227-461) (enzyme) | 210000 M⁻¹ s⁻¹ |  | 
FIXa-R338E/T343R/E410N (from UniProt P00740 47-191; P00740 227-461) (enzyme) | 2e+07 M⁻¹ s⁻¹ |  | 
WT-recombinant FIX (native amino-acid sequence, made in the Sponsor's laboratory; activated, FIXa) (from UniProt P00740 47-191; P00740 227-461) (enzyme) |  |  | ATIII Kapp (second-order rate constant of inhibition) [2]: 2.4e+07 M⁻¹ s⁻¹
FIXa-Y155F/R318Y/T343R/R403E (from UniProt P00740 47-191; P00740 227-461) (enzyme) | 11000 M⁻¹ s⁻¹ |  | 
FIXa Y155F/K247N/N249S/R318Y/R338E/R403E/E410N (from UniProt P00740 47-191; P00740 227-461) (enzyme) |  | 1600 M⁻¹ s⁻¹ | 
FIXa-Y155F/K247N/N249S/R403E/E410N (from UniProt P00740 47-191; P00740 227-461) (enzyme) | 130000 M⁻¹ s⁻¹ |  | 
FIXa I251S/R318Y/R338E/R403E/E410N (from UniProt P00740 47-191; P00740 227-461) (enzyme) |  | 3000 M⁻¹ s⁻¹ | 
FIXa R318Y/R338E (from UniProt P00740 47-191; P00740 227-461) (enzyme) |  | 620000 M⁻¹ s⁻¹ | 
FIXa N346Y (from UniProt P00740 47-191; P00740 227-461) (enzyme) |  | 840000 M⁻¹ s⁻¹ | 

Substance | kapp (apparent second-order rate constant for inhibition) [1] | kapp (apparent second-order rate constant for inhibition) [3] | other results
FIXa-Y155F/K247N/N249S/R318Y/T343R/R403E (from UniProt P00740 47-191; P00740 227-461) (enzyme) | 12000 M⁻¹ s⁻¹ |  | 
FIXa K247N/N249S/R318Y/R338E/R403E/E410N (from UniProt P00740 47-191; P00740 227-461) (enzyme) |  | 2000 M⁻¹ s⁻¹ | 
FIXa D104N/K106S/I251S/R318Y/R338E/R403E/E410N (from UniProt P00740 47-191; P00740 227-461) (enzyme) |  | 5700 M⁻¹ s⁻¹ | 
FIXa-K228N/K247N/N249S/R318Y/R338E/T343R/R403E (from UniProt P00740 47-191; P00740 227-461) (enzyme) | 1000 M⁻¹ s⁻¹ |  | 
FIXa-Y155F/R338E/T343R/E410N (from UniProt P00740 47-191; P00740 227-461) (enzyme) | 1.3e+07 M⁻¹ s⁻¹ |  | 
FIXa-K228N/K247N/N249S/R318Y/R338E/T343R/E410N (from UniProt P00740 47-191; P00740 227-461) (enzyme) | 630000 M⁻¹ s⁻¹ |  | 
FIXa A103N/N105S/K247N/N249S/R318Y/R338E/R403E/E410N (from UniProt P00740 47-191; P00740 227-461) (enzyme) |  | 1700 M⁻¹ s⁻¹ | 
FIXa A103N/N105S/R318Y/R338E/R403E/E410N (from UniProt P00740 47-191; P00740 227-461) (enzyme) |  | 2600 M⁻¹ s⁻¹ | 
FIXa R318Y/R403E/E410N (from UniProt P00740 47-191; P00740 227-461) (enzyme) |  | 28000 M⁻¹ s⁻¹ | 
FIXa-K247N/N249S/R318Y/T343R/R403E/E410N (from UniProt P00740 47-191; P00740 227-461) (enzyme) | 25000 M⁻¹ s⁻¹ |  | 
FIXa-Y155F/R318Y/T343R/E410N (from UniProt P00740 47-191; P00740 227-461) (enzyme) | 200000 M⁻¹ s⁻¹ |  | 
FIXa-R318Y/T343R/E410N (from UniProt P00740 47-191; P00740 227-461) (enzyme) | 1.2e+06 M⁻¹ s⁻¹ |  | 
FIXa-K247N/N249S/R318Y/R338E/T343R (from UniProt P00740 47-191; P00740 227-461) (enzyme) | 320000 M⁻¹ s⁻¹ |  | 
FIXa Y155F/N346D (from UniProt P00740 47-191; P00740 227-461) (enzyme) |  | 4e+06 M⁻¹ s⁻¹ | 
FIXa-K228N/K247N/N249S/R318Y/T343R/R403E/E410N (from UniProt P00740 47-191; P00740 227-461) (enzyme) | 17000 M⁻¹ s⁻¹ |  | 
FIXa T343R/Y345T (from UniProt P00740 47-191; P00740 227-461) (enzyme) |  | 5e+06 M⁻¹ s⁻¹ | 
FIXa D104N/K106S/Y155F/R318Y/R338E/R403E/E410N (from UniProt P00740 47-191; P00740 227-461) (enzyme) |  | 2900 M⁻¹ s⁻¹ | 
FIXa D104N/K106S/R318Y/R338E/R403E/E410N (from UniProt P00740 47-191; P00740 227-461) (enzyme) |  | 3900 M⁻¹ s⁻¹ | 
FIX of SEQ ID NO: 394, with the replacements R318Y/R338E/T343R (activated, FIXa) (from UniProt P00740 47-191; P00740 227-461) (enzyme) |  |  | ATIII Kapp (second-order rate constant of inhibition) [2]: 1.1e+06 M⁻¹ s⁻¹
FIXa-Y155F/K247N/N249S/R338E/E410N (from UniProt P00740 47-191; P00740 227-461) (enzyme) | 2.9e+06 M⁻¹ s⁻¹ |  | 
FIXa-Y155F/K247N/N249S/R338E/T343R/R403E (from UniProt P00740 47-191; P00740 227-461) (enzyme) | 44000 M⁻¹ s⁻¹ |  | 
